Reference: PMC3302801, “Regulation of the vapBC-1 Toxin-Antitoxin Locus in Nontypeable Haemophilus influenzae”

Tests used:
[1] = biological target: T1, VapB-1 (Haemophilus influenzae (nontypeable, R2866)) (UniProt E4QWH3); assay: DNase I footprinting; conditions: EMSA: 20 mM HEPES pH 7.5, 100 mM NaCl, 0.1 mM EDTA, 1 mM DTT, 50 ug/mL BSA, 5% glycerol, 1 nM DNA, 25 C (gel 4 C); DNase I: 25 mM Tris-HCl pH 7.4, 70 mM KCl …
T1 sequence: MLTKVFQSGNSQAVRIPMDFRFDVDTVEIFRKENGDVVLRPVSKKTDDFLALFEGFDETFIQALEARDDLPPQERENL

VapB-1 [2] = biological target: T2, VapB-1 (Haemophilus influenzae (nontypeable, …, UniProt E4QWH3 1-78)); assay: EMSA; 300:1; EMSA: 20 mM HEPES pH 7.5, 100 mM NaCl, 0.1 mM EDTA, 1 mM DTT, 50 ug/mL BSA, 5% glycerol, 1 nM DNA, 25 C (gel 4 C); DNase I: 25 mM Tris-HCl pH 7.4, 70 mM KCl, 7; conditions: protein: recombinant; tags: C-terminal polyhistidine (pET24b); chain copies: 2; blunt
T2 sequence: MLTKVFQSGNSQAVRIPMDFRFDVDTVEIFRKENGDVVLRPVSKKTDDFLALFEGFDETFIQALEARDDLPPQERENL

VapB-1 [3] = biological target: T2, VapB-1; assay: EMSA; up to 300:1; EMSA: 20 mM HEPES pH 7.5, 100 mM NaCl, 0.1 mM EDTA, 1 mM DTT, 50 ug/mL BSA, 5% glycerol, 1 nM DNA, 25 C (gel 4 C); DNase I: 25 mM Tris-HCl pH 7.4, 70 mM KCl, 7; conditions: protein: recombinant; tags: C-terminal polyhistidine (pET24b); chain copies: 2; label: 5'-32P sense strand; blunt

## GTTAGGATCCTGAAACACTTTAGTAAGCATATTTACCCTCTCGTATATACTATGTATTTAATAAGTATATACTAATCATTTCAATTGCTGTATGCAAGTAAGAAGATCAAATTACCGTTGTTTTATTTAACCGCAATCATCGAGCGAATTCTAA (double strand) [153 bp vapBC-1 locus control region]
[1]
  binding: no binding

B1: 50US (dsDNA)
DNA 1: AACAACGGTAATTTGATCTTCTTACTTGCATACAGCAATTGAAATGATTA
DNA 2: TAATCATTTCAATTGCTGTATGCAAGTAAGAAGATCAAATTACCGTTGTT
VapB-1 [2]
  binding result: no binding

B2: 50TIR (dsDNA)
DNA 1: AATGATTAGTATATACTTATTAAATACATAGTATATACGAGAGGGTAAAT
DNA 2: ATTTACCCTCTCGTATATACTATGTATTTAATAAGTATATACTAATCATT
VapB-1 [3]
  binding result: no binding
